From patent publication US20190177366A1 (published 2019) come the findings set out here.

The IC50 is the concentration that inhibits the measured activity by half. A higher IC50 goes with a need for much substance.

Numbered stars: 1 amine (or outer) side, 2 acyl side, 3 side chain; on linkers, the order of the positions; unused ones are H or OH. Bridge positions count the residues as written; N and C are the ends. Square brackets hold non-standard residues; d marks the D form. Primed or numbered codes have the meaning given here. NH(CH2)9CO = O=C(CCCCCCCCCN[*:1])[*:2]; NH(CH2)8CO = O=C(CCCCCCCCN[*:1])[*:2]; hArg = N=C(N)NCCCC[C@H](N)C(=O)O; Cit = NC(=O)NCCC[C@H](N)C(=O)O; Aun = NCCCCCCCCCCC(=O)O; Hyp′ = 3-hydroxyproline; Aoc = NCCCCCCCC(=O)O; Ahp = NCCCCCCC(=O)O; Ahx = NCCCCCC(=O)O; Ava = NCCCCC(=O)O

The chains are these.
B1: Compound 83 (peptide)
peptide: Ac-CRLPWNLQR[Aun]C-NH2
modifications: disulfide 1-11
SMILES: CC(=O)N[C@H]1CSSC[C@@H](C(N)=O)NC(=O)CCCCCCCCCCNC(=O)[C@H](CCCNC(=N)N)NC(=O)[C@H](CCC(N)=O)NC(=O)[C@H](CC(C)C)NC(=O)[C@H](CC(N)=O)NC(=O)[C@H](Cc2c[nH]c3ccccc23)NC(=O)[C@@H]2CCCN2C(=O)[C@H](CC(C)C)NC(=O)[C@H](CCCNC(=N)N)NC1=O
B2: Compound 85 (peptide)
peptide: Ac-CRLPWNLQR[NH(CH2)8CO]C-NH2
modifications: disulfide 1-11
SMILES: CC(=O)N[C@H]1CSSC[C@@H](C(N)=O)NC(=O)CCCCCCCCNC(=O)[C@H](CCCNC(=N)N)NC(=O)[C@H](CCC(N)=O)NC(=O)[C@H](CC(C)C)NC(=O)[C@H](CC(N)=O)NC(=O)[C@H](Cc2c[nH]c3ccccc23)NC(=O)[C@@H]2CCCN2C(=O)[C@H](CC(C)C)NC(=O)[C@H](CCCNC(=N)N)NC1=O
B3: Compound 115 (peptide)
peptide: Ac-CRLPWNLQRI[Ava]C-NH2
modifications: disulfide 1-12
SMILES: CC[C@H](C)[C@@H]1NC(=O)[C@H](CCCNC(=N)N)NC(=O)[C@H](CCC(N)=O)NC(=O)[C@H](CC(C)C)NC(=O)[C@H](CC(N)=O)NC(=O)[C@H](Cc2c[nH]c3ccccc23)NC(=O)[C@@H]2CCCN2C(=O)[C@H](CC(C)C)NC(=O)[C@H](CCCNC(=N)N)NC(=O)[C@@H](NC(C)=O)CSSC[C@@H](C(N)=O)NC(=O)CCCCNC1=O
B4: Compound 121 (peptide)
peptide: Ac-CRLPWNLQRI[Ahp]C-NH2
modifications: disulfide 1-12
SMILES: CC[C@H](C)[C@@H]1NC(=O)[C@H](CCCNC(=N)N)NC(=O)[C@H](CCC(N)=O)NC(=O)[C@H](CC(C)C)NC(=O)[C@H](CC(N)=O)NC(=O)[C@H](Cc2c[nH]c3ccccc23)NC(=O)[C@@H]2CCCN2C(=O)[C@H](CC(C)C)NC(=O)[C@H](CCCNC(=N)N)NC(=O)[C@@H](NC(C)=O)CSSC[C@@H](C(N)=O)NC(=O)CCCCCCNC1=O
B5: Compound 117 (peptide)
peptide: Ac-CRLPWNLQ[hArg]IGLPC-NH2
modifications: disulfide 1-14
SMILES: CC[C@H](C)[C@@H]1NC(=O)[C@H](CCCCNC(=N)N)NC(=O)[C@H](CCC(N)=O)NC(=O)[C@H](CC(C)C)NC(=O)[C@H](CC(N)=O)NC(=O)[C@H](Cc2c[nH]c3ccccc23)NC(=O)[C@@H]2CCCN2C(=O)[C@H](CC(C)C)NC(=O)[C@H](CCCNC(=N)N)NC(=O)[C@@H](NC(C)=O)CSSC[C@@H](C(N)=O)NC(=O)[C@@H]2CCCN2C(=O)[C@H](CC(C)C)NC(=O)CNC1=O
B6: Compound 116 (peptide)
peptide: Ac-CRLPWNLQRI[Ahx]C-NH2
modifications: disulfide 1-12
SMILES: CC[C@H](C)[C@@H]1NC(=O)[C@H](CCCNC(=N)N)NC(=O)[C@H](CCC(N)=O)NC(=O)[C@H](CC(C)C)NC(=O)[C@H](CC(N)=O)NC(=O)[C@H](Cc2c[nH]c3ccccc23)NC(=O)[C@@H]2CCCN2C(=O)[C@H](CC(C)C)NC(=O)[C@H](CCCNC(=N)N)NC(=O)[C@@H](NC(C)=O)CSSC[C@@H](C(N)=O)NC(=O)CCCCCNC1=O
B7: Compound 84 (peptide)
peptide: Ac-CRLPWNLQR[NH(CH2)9CO]C-NH2
modifications: disulfide 1-11
SMILES: CC(=O)N[C@H]1CSSC[C@@H](C(N)=O)NC(=O)CCCCCCCCCNC(=O)[C@H](CCCNC(=N)N)NC(=O)[C@H](CCC(N)=O)NC(=O)[C@H](CC(C)C)NC(=O)[C@H](CC(N)=O)NC(=O)[C@H](Cc2c[nH]c3ccccc23)NC(=O)[C@@H]2CCCN2C(=O)[C@H](CC(C)C)NC(=O)[C@H](CCCNC(=N)N)NC1=O
B8: Compound 63 (peptide)
peptide: Ac-MCLWNLKRIGSQCEY-NH2
modifications: disulfide 2-13
SMILES: CC[C@H](C)[C@@H]1NC(=O)[C@H](CCCNC(=N)N)NC(=O)[C@H](CCCCN)NC(=O)[C@H](CC(C)C)NC(=O)[C@H](CC(N)=O)NC(=O)[C@H](Cc2c[nH]c3ccccc23)NC(=O)[C@H](CC(C)C)NC(=O)[C@@H](NC(=O)[C@H](CCSC)NC(C)=O)CSSC[C@@H](C(=O)N[C@@H](CCC(=O)O)C(=O)N[C@@H](Cc2ccc(O)cc2)C(N)=O)NC(=O)[C@H](CCC(N)=O)NC(=O)[C@H](CO)NC(=O)CNC1=O
B9: Compound 65 (peptide)
peptide: Ac-WCLWNLKRIGSQCEY-NH2
modifications: disulfide 2-13
SMILES: CC[C@H](C)[C@@H]1NC(=O)[C@H](CCCNC(=N)N)NC(=O)[C@H](CCCCN)NC(=O)[C@H](CC(C)C)NC(=O)[C@H](CC(N)=O)NC(=O)[C@H](Cc2c[nH]c3ccccc23)NC(=O)[C@H](CC(C)C)NC(=O)[C@@H](NC(=O)[C@H](Cc2c[nH]c3ccccc23)NC(C)=O)CSSC[C@@H](C(=O)N[C@@H](CCC(=O)O)C(=O)N[C@@H](Cc2ccc(O)cc2)C(N)=O)NC(=O)[C@H](CCC(N)=O)NC(=O)[C@H](CO)NC(=O)CNC1=O
B10: Compound 64 (peptide)
peptide: Ac-DCLWNLKRIGSQCEY-NH2
modifications: disulfide 2-13
SMILES: CC[C@H](C)[C@@H]1NC(=O)[C@H](CCCNC(=N)N)NC(=O)[C@H](CCCCN)NC(=O)[C@H](CC(C)C)NC(=O)[C@H](CC(N)=O)NC(=O)[C@H](Cc2c[nH]c3ccccc23)NC(=O)[C@H](CC(C)C)NC(=O)[C@@H](NC(=O)[C@H](CC(=O)O)NC(C)=O)CSSC[C@@H](C(=O)N[C@@H](CCC(=O)O)C(=O)N[C@@H](Cc2ccc(O)cc2)C(N)=O)NC(=O)[C@H](CCC(N)=O)NC(=O)[C@H](CO)NC(=O)CNC1=O
B11: Compound 86 (peptide)
peptide: Ac-CRLPWNLQR[Aoc]C-NH2
modifications: disulfide 1-11
SMILES: CC(=O)N[C@H]1CSSC[C@@H](C(N)=O)NC(=O)CCCCCCCNC(=O)[C@H](CCCNC(=N)N)NC(=O)[C@H](CCC(N)=O)NC(=O)[C@H](CC(C)C)NC(=O)[C@H](CC(N)=O)NC(=O)[C@H](Cc2c[nH]c3ccccc23)NC(=O)[C@@H]2CCCN2C(=O)[C@H](CC(C)C)NC(=O)[C@H](CCCNC(=N)N)NC1=O
B12: Compound 36 (peptide)
peptide: Ac-SGCFIPWNLQ[Cit]IGLPC-NH2
modifications: disulfide 3-16
SMILES: CC[C@H](C)[C@@H]1NC(=O)[C@H](CCCNC(N)=O)NC(=O)[C@H](CCC(N)=O)NC(=O)[C@H](CC(C)C)NC(=O)[C@H](CC(N)=O)NC(=O)[C@H](Cc2c[nH]c3ccccc23)NC(=O)[C@@H]2CCCN2C(=O)[C@H]([C@@H](C)CC)NC(=O)[C@H](Cc2ccccc2)NC(=O)[C@@H](NC(=O)CNC(=O)[C@H](CO)NC(C)=O)CSSC[C@@H](C(N)=O)NC(=O)[C@@H]2CCCN2C(=O)[C@H](CC(C)C)NC(=O)CNC1=O

T1 sequence (A8T644 31-152 limits assumed, chain 1 of 2): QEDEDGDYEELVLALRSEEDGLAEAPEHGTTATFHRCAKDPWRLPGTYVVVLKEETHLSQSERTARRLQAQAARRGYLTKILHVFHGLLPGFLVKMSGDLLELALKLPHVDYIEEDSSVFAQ
T1 sequence (A8T644 other isoform, or with tags, fused parts or gaps limits assumed, chain 2 of 2): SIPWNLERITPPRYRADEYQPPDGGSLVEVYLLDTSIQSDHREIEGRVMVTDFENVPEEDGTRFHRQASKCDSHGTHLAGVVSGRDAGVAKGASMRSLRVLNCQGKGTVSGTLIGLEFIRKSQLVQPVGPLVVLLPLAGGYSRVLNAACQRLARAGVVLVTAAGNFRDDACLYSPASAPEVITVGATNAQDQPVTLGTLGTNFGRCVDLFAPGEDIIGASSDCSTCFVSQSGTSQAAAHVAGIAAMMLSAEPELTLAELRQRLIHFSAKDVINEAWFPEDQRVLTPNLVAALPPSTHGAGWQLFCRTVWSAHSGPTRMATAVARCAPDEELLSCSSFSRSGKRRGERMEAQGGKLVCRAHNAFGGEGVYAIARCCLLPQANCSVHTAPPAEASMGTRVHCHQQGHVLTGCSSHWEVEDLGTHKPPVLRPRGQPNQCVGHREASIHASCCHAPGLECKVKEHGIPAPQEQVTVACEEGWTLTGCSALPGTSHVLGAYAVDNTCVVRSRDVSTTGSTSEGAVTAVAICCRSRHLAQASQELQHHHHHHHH

This test addresses T1, His-tagged, full-length PCSK9 (human, UniProt A8T644 31-152; Q8NBP7 153-692).
T1 construct: Target protein of the PCSK9/EGF(A) TR-FRET assay (10 nM); also called His-PCSK9; proprotein convertase subtilisin/kexin type 9
The test is described as follows: TR-FRET competition; competitor EGF(A)-Fc on His-PCSK9.
The molecule B1 registered a half-maximal inhibitory concentration (IC50) of more than 50 µM. Then Ac-SGCRL[Hyp′]WNLQRIGLPC-NH2 (disulfide 3-16) [Compound 37], with more than 50 µM; and B2, with more than 50 µM. As for B3, the IC50 was more than 50 µM.

On to B4, for which the IC50 is more than 50 µM.

Molecule B5 yielded an IC50 of more than 50 µM.

Consider B6, for which the IC50 is more than 50 µM. B7: the IC50 was more than 50 µM. Molecule B8 yielded an IC50 of 14.6 µM. Molecule B9 registered an IC50 of more than 50 µM. B10 registered an IC50 of more than 50 µM.

As to B11, the IC50 is more than 50 µM.

B12 returned an IC50 of more than 50 µM.
